Assay results published in PMC3107159, “Resistance to organic hydroperoxides requires ohr and ohrR genes in Sinorhizobium meliloti” (BMC Microbiology, 2011).

T1: OhrR (Sinorhizobium meliloti, UniProt Q92RD0)
T1 construct: gene SMc00098; full-length ORF in pET22b+, C-terminal 6His tag kept, E. coli BL21(DE3), heparin column; homodimer
T1 sequence (Q92RD0 1-158): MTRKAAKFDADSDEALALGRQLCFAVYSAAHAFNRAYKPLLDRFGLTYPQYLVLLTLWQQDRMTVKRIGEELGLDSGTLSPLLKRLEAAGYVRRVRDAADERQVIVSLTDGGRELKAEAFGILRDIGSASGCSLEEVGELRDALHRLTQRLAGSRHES

T2: OhrR (Sinorhizobium meliloti Rm1021 (S. meliloti chromosomal DNA; Rm1021?)) (UniProt Q92MX6)
T2 sequence: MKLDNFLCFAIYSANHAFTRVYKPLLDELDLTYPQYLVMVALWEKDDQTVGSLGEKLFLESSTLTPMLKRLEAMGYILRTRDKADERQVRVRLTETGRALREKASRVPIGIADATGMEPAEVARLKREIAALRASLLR

T3: OhrR (Sinorhizobium meliloti Rm1021 (S. …, UniProt Q92MX6 1-138))
T3 sequence: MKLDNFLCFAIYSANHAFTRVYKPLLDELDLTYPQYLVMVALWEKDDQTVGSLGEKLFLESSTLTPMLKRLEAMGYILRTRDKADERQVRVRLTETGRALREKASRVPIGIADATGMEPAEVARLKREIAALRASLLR


Legend:
OhrR [1] = target: T1, OhrR; experiment: non-reducing SDS-PAGE of oxidised protein; assay type: binding; settings: covalent oxidation, reversible intersubunit disulfide dimer; 15 min incubation; 0.55 nM CuOOH as printed; reversed by DTT
[2] = target: T2, OhrR (Sinorhizobium meliloti Rm1021 (S. meliloti chromosomal DNA; Rm1021?)); experiment: EMSA; settings: 20 mM Tris-HCl pH 8.0, 50 mM KCl, 1 mM EDTA, 50 uM BSA, room temperature 10 min, 20 ul, 20 pmol DNA, 0-100 pmol OhrR, 6% PAGE in Tris-borate, SYBR gold
OhrR [3] = target: T3, OhrR; experiment: EMSA; 1 mM DTT; 20 mM Tris-HCl pH 8.0, 50 mM KCl, 1 mM EDTA, 50 uM BSA, room temperature 10 min, 20 ul; 20 pmol DNA, 0-100 pmol OhrR; 6% PAGE in Tris-borate, SYBR gold; 1 mM DTT in Fig 3C; settings: protein: recombinant; tags: C-terminal 6xHis (pET22b+); chain copies: 2; label: none (SYBR gold stain); blunt

Molecule | binding result (OhrR [3]) | other results
CC(C)(OO)c1ccccc1 [CuOOH] |  | non-reducing SDS-PAGE of oxidised protein (OhrR [1]): Incubation of the protein with CuOOH or H2O2 led to the formation of a band
CATGACAGTCTCCTTCCTTGTGGTTGCCGGATTTATATATCGCAAGATTAAATAGCGCGCAAATTAATTTTGCAAATTGCTTTGCCGGCGTGAATTTGCGACAATGACATCAT (double strand) [ohr-ohrR intergenic region 113 bp] |  | binding [2]: binds
M1 60 bp (dsDNA) DNA 1: GGGGGGGAAGCTAGTCACCGCAAATTAATTTTGCGATACTAGAGAGATGCATATGGGGGG DNA 2: CCCCCCATATGCATCTCTCTAGTATCGCAAAATTAATTTGCGGTGACTAGCTTCCCCCCC | binds | 
M2 60 bp (dsDNA) DNA 1: GGGGGGGAAGCTAGTCACCGCAAATTGCTTTGCCGATACTAGAGAGATGCATATGGGGGG DNA 2: CCCCCCATATGCATCTCTCTAGTATCGGCAAAGCAATTTGCGGTGACTAGCTTCCCCCCC | binds | 
Mut1 60 bp (GC to AA in motif 1) (dsDNA) DNA 1: GGGGGGGAAGCTAGTCACCAAAAATTAATTTTGCGATACTAGAGAGATGCATATGGGGGG DNA 2: CCCCCCATATGCATCTCTCTAGTATCGCAAAATTAATTTTTGGTGACTAGCTTCCCCCCC | no binding | 
Mut2 60 bp (AAA to CCC in motif 1) (dsDNA) DNA 1: GGGGGGGAAGCTAGTCACCGCCCCTTAATTTTGCGATACTAGAGAGATGCATATGGGGGG DNA 2: CCCCCCATATGCATCTCTCTAGTATCGCAAAATTAAGGGGCGGTGACTAGCTTCCCCCCC | no binding | 
